Data published in the domain aggregation screens of Martell et al. (2025).

Assay: soluble fraction after stress (log2 fold change); higher = more stays soluble; pooled small domains, quantitative proteomics
Details: stress: 75 degC
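Further: 20 min heating vs room temperature control held 20 min.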

Sequence | soluble fraction (log2)
HMVEPTDFTYLKAEVETAKALKQADYTVATWKSFAGELAEAEEVIAKTDASQAEVNEALSHLQAAEKELV | 0.23
HMVETDQESSLIQAIYKYFEITGDNTFFDEKVGEKTVADRMEWAMDYLIQNRFSEEYGLIWGA | -0.285
HMVFADRLRALRKKSGLTQDEFSKQTGIGRSAVGMYESGKREPNYTTLSKVARFYHVSTDYLLGRTDTP | -1.52
HMVFQTAAEKAYEIISKKIMKGEYEPGMRLVRRQLAQELGVSPIPILEAMKRLEQDGLIEYKAHWGSIVTI | -2.29
HMVFRFELQPSSATPLYRQIVEQVTRAVAAGVLRDGEELPSVRAVAQEYVINPMTVSKAYSLLEAQSI | -0.366
HMVFSNLGSRGEEVRQIQTKLKELGYLQGNVDGIYGNQTKQAVTAFQRDHGLSADGIAGEKTLAALGIG | 0.636
HMVGAEDISKPMNLGALMRTAHAFGASFFFTINAHPKVRHAYNSDTSRSFDHMPYYPWDTMEE | 0.151
HMVGDLPPQELRVFELIGDGLSNREIADEMILAEKTIKNYVTSLLQKLGMQRRTEAAAFAARLDER | -0.0289
HMVGDMLTQKDSEGLTAYLYQQGIISQREMLLLNGILKDRVLTGMEKGQRDSVRASMVQHLLAMLNMM | -1.94
HMVGEQISYIPLKFATASEVVKSLTSMFQQQKGIAPIRIVAEERTNAILLLASEADTARVKNLIAMMDKGV | -2.15
HMVGGIAIGQFNVPRGSVKVTAGGRLLQEGLDYTVNYQAGRVQILDESLKNSNVPIEISTESNS | 0.106
HMVGMDRYFKIKNIKDSSAAFERDYILHFLKENDWMVSKTAQMIGLERTTLYKKIKQLGLASMLEN | -3.24
HMVGQIISNARKQEKMTQSELAEKVGTNKTYISRIEKGVIEPGVGLFFRIIDALGLKIEIVKP | -2.07
HMVHSEDLQDHKYVSQLGEVFLKENPNYENIKKSWGDHMVVIKKFGRYPHRNKILNRKSTPEELEFLKG | -0.0435
HMVILPGEKMVVKIVQPGKEKGQGVGYLADGTMIVVDSGDKMIGQDVPTEITRVFQTVAGKMLFAVPVD | -0.73
HMVIMDLIVNGEPKYVVGEQLHLILDELGYSGKHFVVELNGEILSKEAYTTTKLTAADRLEIVSFVGG | -3.23
HMVITATYTDFMDALEADEVKQVQFSSTEINYTIEKGGHVQYFKTGVVDNPQLPQILREKGVTYAAEIP | -0.512
HMVITDPFFLEPENLVKDAVALMEKYRISGVPITKKGKLVGILTNRDLRFESNYEQPIANVMS | 0.137
HMVITISEADVSGTYTKSITQGDWKYIRTWTPFEDERLYDLAKDPMELRDLAPAAPSKLAELRELLSALVS | -1.4
HMVIVMRKDADAASIEKVVSEVKSRGFMPHVSEGESRTLIGAIGPAPTEELREHFAGLAGVETVVRITK | -0.533
HMVKDIEFSLPLEQDYYKVLISVKDSQGKRQVYEELHRAGDTVYAAVRYYGSGELEIHLNGKFYKTIK | -0.868
HMVKDLEIETIRLNNLLASDAEEVLKSLGGAKPTYKAVAVPGSNSLVIEGTKADLIKLKSIINALEDGS | 0.00865
HMVKETNYSFFLKQIDAGTVEQVQIEDTEIKFKVSTADGKEQVYSTVRVEDPDLVDRLYSKGNIDFTGN | -0.0797
HMVKIIHYEVYANRGDGWKLVDQFSADQRQEAVNLAKEIETEDQVAVKIIREIFDVQDNTYQESVEYIG | -1.59
HMVKLDDLTGQDKATAEATITNSGLKYSEQQEFSDEVEAGKVIRTDPGAGTSSLKAGDTVTVYVSRGPEN | 0.215
HMVKNYYEILEVDKKASPEVIEKAYKTLAKKYHPDLQEAENNGQYEEKMKEINEAYSVLSDEFKRRTYDEQ | 0.123

Sequence | soluble fraction (log2)
HMVKSYEVPDVSNLTVLEAEAKLQEMGFEIDEEQKEISSSDIESGRVVKTSPQAGSKRKEGAIITLYVSSG | 0.65
HMVKTANVAYSEFLKLVESDNISDVSIVGRTITGHLDDGTKFSTYTPPNDPSLIDKLTRKNVIIKSAPE | 0.0585
HMVKVEVKPNVLQWVIKRMDNFDRLKDQFPNIDKWINQESQPTLKQLEKLAKMTAVPLGYFFLPNPPEEK | -1.12
HMVLELRIGQIVRGVLLQLVGEREGIVSVGGVPVRARLEAEIPLGRGVMLQVQPGSDANNILLKPV | -3.01
HMVLENLKKFIDSKGISVSAFEKSIGMSNNSFRKSLNSGGHIGSDKLENILKIYPELNPVWLLQGEGEML | -0.589
HMVLGSSVAMGQKIGDSDLTWVEVPLSSAFDRFLSEPEWRGSSDLVAARLLEAGVFLTEDDVVE | 0.0533
HMVLLGAAIRELRIQKGITIEELAEMSGLSTGLISKIERDLGNPSISSLRKISRALGVPTAFFFA | -3.28
HMVLSKGAKELLDFIMREGEVTTSKVVQKFGGSAQNASAKLKKLYATGLILGSKAVAESGGLEFVYKA | 0.256
HMVLSVRERMGIVLEKVNTETFTDFKELFTVEEGRAGAIVSLLAILQLMKDSLIQLVQNEPNGPIYVKAA | -0.879
HMVLTSFHDNFPKTGTTYTVRSGDTISGIATKFGSTRDWIQNANEISHPKYLQVGRTLFIPH | -0.302
HMVMATPHNTAKAGDIAKTVIMPGDPLRAKYIADNYLDNAVQFNVVRNIYGYTGVYRGTDISVMASGM | 0.212
HMVMETLAERINTALQTKGLSVNALARRVGVSYPAMRKITKGETLNPKFLFEIAEALGVSVEWLKTGEGSP | -1.34
HMVMNKQEFLKILRDTLQSQLSSRETENHVEYYRTYIEEQMREGKTEIEILDVLGDPRLIARTILET | -0.193
HMVMSTDAELILEYLAKHQGEMEITDKSSPELIMDTFNMSKGAFKRALGSLYKSKTVVIESTKVLLNT | -1.44
HMVNDQSIYASEGYVHIRSGKPVSLRIYTILGALYRHEERLVGDHVIALPRGLYIVVLNHTAKKIMV | -0.657
HMVNEALDEFFVGLKNLYESATGKPAIAGAHFDGEPKTDFEKLMYLGYQIIRPAQAYPSALKAYERAIARS | -0.145
HMVNHEERKRLIAEATWRTISHVGIEQASVRTIAKEAGLSLGALRYYFTTQEELLRFSMQLVQERV | -0.0767
HMVNIEAEVGRRLRQLRARRGLSLRALADLSGLNVNTLSLIENSKTSPSVSTLQQLARSLQVPITTFFESD | -1.36
HMVNKQERTYTILRDRIHSGSFAPLERLNIDALARELGVSPIPVREALRRLEAEGWVRFTPNVGAVVSP | -0.509
HMVNLLVTPLEELEINFRTLRALRKYNIYQLEDLLRFIKYNGFDALRIVPGMGIKSTEQLYEKLKDKNI | -0.112
HMVNTVEVQGNTIYSAEEIRSASGIQKGDNLFTLNKEAAAGSIKASLPYVETVSIIRFLPDKIVIEVKE | -0.57
HMVNVLKNSTVIDLVKNNLSDALIISLIRRAKVDFSLMTDDVIELSGKGVSPAVIMEMRQAMIRQASEIQN | -0.318
HMVNVTEAIDLENGTGKLSGTFNHEPKSAEEIIFLLKIDTNKWKLSQYWNKQMGDHWRVSALISQI | -2.82
HMVPAMEVALEDARRAIEQVVSGERTSVQLSSQEAMIRKLQHQMAKDANLFSRSSGVEPQRRVTIYTN | 0.0142
HMVPHQPRVWTNTAGKTITAAFVRFNAAGRKVSLKLEKGRQVELPLASLSGNDVDWIKEHVPEAMSNQE | -1.06
HMVPISGADFEKLSDYILQKAGAGSIQVKELLAGLKGMHEKNLWKAIDYLLAEEKIRIDKGGNISVK | -0.322

Sequence | soluble fraction (log2)
HMVPQAVQDIKAYLASGALPYIGPATAKKIVAMFGSDALDVIAEHPEQLTAIRGLNEEKANAIHQEFRRQF | -0.259
HMVPSSHNIAQKVKQIKINDLWLDVRERYIYLKNLYLSHPLEKDHPSFIVYVEAVNQIYNQYF | -0.0707
HMVQDDLRELEGISTELLAKLADAGITNRDDLADLAIDELVAITGQSEDDAKALIMKAREHWFAGDA | 0.0246
HMVQIIQLQGTDKRLYELVAPLVMNPEILKQNYNYPFRTSEDFVWFVAVDKKKVIGFIPVEEKKKEYVI | -0.108
HMVRKGEINFDQLSVRARNALRNMNILFEKEILKLTEYDLKSIPNLGVKTTNELLSYIKRLQTNQKEE | -1.47
HMVRRSERLHALTESLRRSGNRGRTAEQLATEFEVSVRTIKRDLVALEASGLPLWSRPGPGGGYGLLS | -0.953
HMVRTIKILGIKHNINLYYKNVKVPTMNVKNQTLEIILPNKYKKFQEEQILKVLTQKLYDKIAETEIEKIK | -1.11
HMVSAEQNTLEFIKENVKEDVIEDDIEFYKSLLEDWSVEVDNSSKLLDPGNNNSLLAVIAYSIENEL | 0.232
HMVSDAWITGKVKSQLLADDVTPGMKIDVDTEDRIVSLKGTVPSLTARNEAIRIASHTKGVRTVDADELIV | 0.17
HMVSFAEQASDWLAHFDRLGDVGPDTTLTDLTARDAEFSAWVNEGIHHRVAFLETLAAWHRTER | -0.627
HMVSGLEILKIQVQDHPSDWRWALLLARTHYENGNREAAVRTLRPLQRLHPDRLEVMTLWALLA | -0.194
HMVSGSPTVDILMQRGLEYQQQENLEAARDAFDRAINLKPDYAEAWNRRAVLFFNEGKYDEAIADLETAIT | 0.136
HMVSKEELANSIYENKTADELGNIVLRKGKYSGEMLRTIYVKDIGYLEWHSKQSYEYSNAVKWYLKKLE | -1.37
HMVSLEEIINDLTSRIQTAVKMRFSDFVQNRKERVGVIVSFLGMLELVKQGIIDIKQEGHFADIEMETA | -0.347
HMVSLSENQKIVLESLNTAMSARELMEILNLSDISHFRRNILNPLLLEGLIVRTKPDKPKSSKQKYIKANF | -1.69
HMVSPEVEMLRAAVETMSERQKQVYELHYLRGFNVKETAAILGMSSPTVTAHKKRIMEIIKKFFE | -1.46
HMVSPFQQQIADKVHNEIIAAKFNYDNATNENERLLAQLQAKKARELANQYGLDMSSYGADTTAERS | 0.61
HMVSSAEQQARDKESGMILVQEAGGPDKARALVEKMRQDIRNPALDGTRRQMLRGHVARIELALAELETG | -0.0254
HMVSVGDIFAGRIISNENGHLLLQLLDGSKISAQTVTDLKYNIGDVLNLEIIEEKQGLIFVRQT | -2.05
HMVSVLGRRIKELRLQNSMTQMQLAKKLGYKGNSLVAGWELGKNYPSVSSIKRLSEIFDTDLMKYVG | -2.53
HMVTDTGAIEKVIDEVIAANPKQVQEIADQRAAGHEKPKTLGWLVGQIMKASGGKVNPAAVNEILLKKLG | 0.0887
HMVTFDEISQSLVRDVAARRSLSVQTLHAMVDRYNAGSSINAVANQYGIDRLKLREILIELGVHVAT | -2.4
HMVTLQEVKQYLRIDFEEEDPLLLSLLATAKQQVMNVGRMDEAQLSEHEDTARTAILYAVSYLYENRN | -1.82
HMVTPAQQARDTLLGALVGLARATTSEPKTDDTDVVLNAGLRLAAQPDAPEERLQRMLAIVQTEKHRV | 0.138
